Experimental data taken from patent US20210347873A1 (SHANGHAI PHARMAEXPLORER, published 2021).

Key:
[1] = target: hBLyS-ECD (His-tagged extracellular domain of human BLyS protein, Ala134-Leu285) (human) (UniProt Q9Y275); test: cell-based or functional assay
[2] = target: His-tagged extracellular domain of human BLyS protein (hBLyS-ECD), Ala134-Leu285 (human) (UniProt Q9Y275); test: cell-based or functional assay
[3] = target: extracellular domain of human BLyS protein (hBLyS-ECD), His-tagged, Ala134-Leu285 (human) (UniProt Q9Y275); test: cell-based or functional assay
Chain of extracellular domain of human BLyS protein (hBLyS-ECD), His-tagged, Ala134-Leu285 (human) (Q9Y275 134-285): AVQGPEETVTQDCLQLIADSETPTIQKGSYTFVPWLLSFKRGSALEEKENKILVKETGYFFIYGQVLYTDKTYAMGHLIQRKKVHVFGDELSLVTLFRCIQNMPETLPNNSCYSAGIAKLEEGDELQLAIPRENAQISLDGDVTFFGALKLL

[4] = target: biotinylated hBLyS-ECD (human) (UniProt Q9Y275); test: ELISA on captured biotinylated hBLyS-ECD; control antibody 2.67 nM
Chain of biotinylated hBLyS-ECD (human) (Q9Y275 134-285): as above

[5] = target: biotinylated hBLyS-ECD (human) (UniProt Q9Y275); test: ELISA on captured biotinylated hBLyS-ECD; control antibody 66.7 nM
[6] = target: biotinylated hBLyS-ECD (human) (UniProt Q9Y275); test: ELISA on captured biotinylated hBLyS-ECD; control antibody 13.3 nM
[7] = target: biotinylated hBLyS-ECD (human) (UniProt Q9Y275); test: ELISA on captured biotinylated hBLyS-ECD; control antibody 0.107 nM
[8] = target: biotinylated hBLyS-ECD (human) (UniProt Q9Y275); test: ELISA on captured biotinylated hBLyS-ECD; control antibody 0.534 nM
[9] = target: biotinylated hBLyS-ECD (human) (UniProt Q9Y275); test: as above; remark: listed apart in the source
[10] = target: biotinylated hBLyS-ECD (human) (UniProt Q9Y275); test: ELISA on captured biotinylated hBLyS-ECD; control antibody 0.0213 nM
[11] = target: biotinylated hBLyS-ECD (human) (UniProt Q9Y275); test: ELISA on captured biotinylated hBLyS-ECD; control antibody 0.00427 nM
[12] = target: biotinylated hBLyS-ECD (human) (UniProt Q9Y275); test: ELISA on captured biotinylated hBLyS-ECD; control antibody 0 nM (background)
[13] = target: biotinylated hBLyS-ECD (human) (UniProt Q9Y275); test: as above; remark: listed apart in the source
[14] = target: biotinylated hBLyS-ECD (human) (UniProt Q9Y275); test: BAFF R-coated ELISA, biotinylated hBLyS-ECD bound in presence of control antibody 0 nM
[15] = target: biotinylated hBLyS-ECD (human) (UniProt Q9Y275); test: BAFF R-coated ELISA, biotinylated hBLyS-ECD bound in presence of control antibody 4 nM
[16] = target: biotinylated hBLyS-ECD (human) (UniProt Q9Y275); test: BAFF R-coated ELISA, biotinylated hBLyS-ECD bound in presence of control antibody 20 nM
[17] = target: biotinylated hBLyS-ECD (human) (UniProt Q9Y275); test: as above; remark: listed apart in the source
[18] = target: biotinylated hBLyS-ECD (human) (UniProt Q9Y275); test: BAFF R-coated ELISA, biotinylated hBLyS-ECD bound in presence of control antibody 0.8 nM
[19] = target: biotinylated hBLyS-ECD (human) (UniProt Q9Y275); test: BAFF R-coated ELISA, biotinylated hBLyS-ECD bound in presence of control antibody 100 nM
[20] = target: biotinylated hBLyS-ECD (human) (UniProt Q9Y275); test: BAFF R-coated ELISA, biotinylated hBLyS-ECD bound in presence of control antibody 0.8 nM; remark: listed apart in the source
[21] = target: biotinylated hBLyS-ECD (human) (UniProt Q9Y275); test: BAFF R-coated ELISA, biotinylated hBLyS-ECD bound in presence of control antibody 100 nM; remark: listed apart in the source
[22] = target: biotinylated hBLyS-ECD (human) (UniProt Q9Y275); test: BAFF R-coated ELISA, biotinylated hBLyS-ECD bound in presence of control antibody 0.16 nM
[23] = target: biotinylated hBLyS-ECD (human) (UniProt Q9Y275); test: as above; remark: listed apart in the source
[24] = target: biotinylated hBLyS-ECD (human) (UniProt Q9Y275); test: BAFF R-coated ELISA, biotinylated hBLyS-ECD bound in presence of control antibody 0.032 nM
[25] = target: biotinylated hBLyS-ECD (human) (UniProt Q9Y275); test: as above; remark: listed apart in the source
[26] = target: biotinylated hBLyS-ECD (human) (UniProt Q9Y275); test: BAFF R-coated ELISA, biotinylated hBLyS-ECD bound in presence of control antibody 0.0064 nM
[27] = target: biotinylated hBLyS-ECD (human) (UniProt Q9Y275); test: as above; remark: listed apart in the source
[28] = target: extracellular domain of human BLyS protein (hBLyS-ECD), His-tagged, Ala134-Leu285 (human, UniProt Q9Y275 134-285); test: cell-based or functional assay
Chain of extracellular domain of human BLyS protein (hBLyS-ECD), His-tagged, Ala134-Leu285 (Q9Y275 134-285): as above

Chain of hBLyS-ECD (His-tagged extracellular domain of human BLyS protein, Ala134-Leu285) (human) (Q9Y275 134-285): as above

With mIgG Control (antibody) the mouse B lymphocyte proliferation (OD450 nm), antibody 0 nM [1] was 2730 OD450 nm, the mouse B lymphocyte proliferation (OD450 nm), antibody 0.000256 nM [1] was 3130 OD450 nm and the mouse B lymphocyte proliferation (OD450 nm), antibody 0.00128 nM [1] was 3880 OD450 nm. The mouse B lymphocyte proliferation (OD450 nm), antibody 0.0064 nM [1] was 3700 OD450 nm, the mouse B lymphocyte proliferation (OD450 nm), antibody 0.032 nM [1] was 4010 OD450 nm and the mouse B lymphocyte proliferation (OD450 nm), antibody 0.16 nM [1] was 4020 OD450 nm. It also gave a mouse B lymphocyte proliferation (OD450 nm), antibody 0.8 nM [1] of 3950 OD450 nm, a mouse B lymphocyte proliferation (OD450 nm), antibody 4 nM [1] of 3100 OD450 nm and a mouse B lymphocyte proliferation (OD450 nm), antibody 20 nM [1] of 2590 OD450 nm. For the same molecule, the mouse B lymphocyte proliferation (OD450 nm), antibody 100 nM [1] was 3400 OD450 nm.

hIgG Control (antibody) was tested, and the IgA Conc. in mouse serum, mice given hBLyS-ECD and antibody (in vivo neutralisation) [2] was 387 µg/mL, the Proportion of B lymphocytes in splenocytes (%), mice given hBLyS-ECD and antibody (in vivo neutralisation) [2] was 39.7% and the mouse B lymphocyte proliferation stimulated by hBLyS-ECD (viable cell signal) at 0 nM antibody (OD450 nm (as headed)) [2] was 3570. For the same molecule, the mouse B lymphocyte proliferation stimulated by hBLyS-ECD (viable cell signal) at 0.000256 nM antibody [2] was 3970, the mouse B lymphocyte proliferation stimulated by hBLyS-ECD (viable cell signal) at 0.00128 nM antibody (OD450 nm (as headed)) [2] was 3860 and the mouse B lymphocyte proliferation stimulated by hBLyS-ECD (viable cell signal) at 0.0064 nM antibody (OD450 nm (as headed)) [2] was 3730. It also gave a mouse B lymphocyte proliferation stimulated by hBLyS-ECD (viable cell signal) at 0.032 nM antibody (OD450 nm (as headed)) [2] of 3920, a mouse B lymphocyte proliferation stimulated by hBLyS-ECD (viable cell signal) at 0.16 nM antibody (OD450 nm (as headed)) [2] of 4200 and a mouse B lymphocyte proliferation stimulated by hBLyS-ECD (viable cell signal) at 0.8 nM antibody (OD450 nm (as headed)) [2] of 4290. For the same molecule, the mouse B lymphocyte proliferation stimulated by hBLyS-ECD (viable cell signal) at 4 nM antibody (OD450 nm (as headed)) [2] was 4430, the mouse B lymphocyte proliferation stimulated by hBLyS-ECD (viable cell signal) at 20 nM antibody (OD450 nm (as headed)) [2] was 4700 and the mouse B lymphocyte proliferation stimulated by hBLyS-ECD (viable cell signal) at 100 nM antibody (OD450 nm (as headed)) [2] was 3720. The OD450 nm (as headed), mouse B lymphocyte proliferation; control antibody 0 nM [3] was 4390, the OD450 nm (as headed), mouse B lymphocyte proliferation; control antibody 0.000256 nM [3] was 4940 and the OD450 nm (as headed), mouse B lymphocyte proliferation; control antibody 0.00128 nM [3] was 4690. The OD450 nm (as headed), mouse B lymphocyte proliferation; control antibody 0.0064 nM [3] was 5070, the OD450 nm (as headed), mouse B lymphocyte proliferation; control antibody 0.032 nM [3] was 5120 and the OD450 nm (as headed), mouse B lymphocyte proliferation; control antibody 0.16 nM [3] was 5370. The OD450 nm (as headed), mouse B lymphocyte proliferation; control antibody 0.8 nM [3] was 5040, the OD450 nm (as headed), mouse B lymphocyte proliferation; control antibody 4 nM [3] was 5100 and the OD450 nm (as headed), mouse B lymphocyte proliferation; control antibody 20 nM [3] was 4930. It also gave an OD450 nm (as headed), mouse B lymphocyte proliferation; control antibody 100 nM [3] of 4880, a Proportion of B lymphocytes in splenocytes (%), in vivo in mice [3] of 51% and an OD450 nm [4] of 0.0652 OD450 nm. It also gave an OD450 nm [5] of 0.144 OD450 nm, an OD450 nm [6] of 0.103 OD450 nm and an OD450 nm [7] of 0.0662 OD450 nm. It also gave an OD450 nm [8] of 0.062 OD450 nm, an OD450 nm [9] of 0.141 OD450 nm and an OD450 nm [10] of 0.0887 OD450 nm. The OD450 nm [11] was 0.121 OD450 nm, the OD450 nm [12] was 0.0731 OD450 nm and the OD450 nm [13] was 0.119 OD450 nm. The OD450 nm [14] was 2.37 OD450 nm, the OD450 nm [15] was 2.15 OD450 nm and the OD450 nm [16] was 2.01 OD450 nm. For the same molecule, the OD450 nm [17] was 1.91 OD450 nm, the OD450 nm [18] was 1.83 OD450 nm and the OD450 nm [19] was 2.2 OD450 nm. For the same molecule, the OD450 nm [20] was 1.85 OD450 nm, the OD450 nm [21] was 1.87 OD450 nm and the OD450 nm [22] was 2.04 OD450 nm. The OD450 nm [23] was 1.79 OD450 nm, the OD450 nm [24] was 1.99 OD450 nm and the OD450 nm [25] was 1.84 OD450 nm. It also gave an OD450 nm [26] of 2.01 OD450 nm and an OD450 nm [27] of 1.99 OD450 nm.

B1: c97A3C2H4 (antibody, V domains shown)
VH: EVKLVESGGGLVQPGGSLKLSCAASGFTFSTYTMSWVRQTPEKRLEWVAYISYGGGSTSYPDTVKGRFTISRDNAKNTLYLQMSSLKSEDTAIYYCTRHVTVVENSMDYWGQGTSVTVSS
VL: DILLTQSPDILSVSPGERVSFSCRASQSIGTSIHWYQQRTNGSPRLLIKYVSESFSGTPSRFSGSGSGTAFTLTINSVESEDIADYYCQQTHSWPWTFGGGTKLEIK
notes: also called chimeric antibody c97A3C2H4
In the case of B1, the “Proportion of B lymphocytes in splenocytes (%), in vivo in mice” value [28] is reported as 28.2%.
